The values that follow come from PMC6692503, “Short- and Long-Term Effects of UVA on Arabidopsis Are Mediated by a Novel cGMP Phosphodiesterase” (Current Biology, 2019).

Substrate in this data set: [H][C@@]12COP(=O)(O)O[C@@]1([H])[C@@H](O)[C@H](n1cnc3c(=O)[nH]c(N)nc31)O2
The data set can be described thus: phosphodiesterase assay kit (Biomol Green phosphate detection), Michaelis-Menten plot. Conditions: 25 °C, 60 min, GST fusion, Figure 3 legend prints 0.2587 μM, substrate of the plot not named in the legend. In kind it is biochemical, Arabidopsis thaliana.

B1: CN-PDE1 (AtCN-PDE1, PDE1, AtPDE1) (Arabidopsis thaliana) (protein)
chain: MAAKTMRKAEELVEKAMKGNDASHDAWHVWRVRDLALSIAREEGLSSNSDSMEIVELAALLHDIGDYKYIRDPSEEKLVENFLDDEGIEETKKTKILTIINGMGFKDELAGVALCESLPEFGVVQDADRLDAIGAIGIARCFTFGGSRNRVLHDPEIKPRTELTKEQYIKREEQTTINHFHEKLLKLKKLMKTEAGKRRAEKRHKFMEEYLKEFYEEWDGST
As to B1, the Km (commonly the substrate concentration at which the rate is half of its maximum) was determined as 0.259 µM.
